Target: the molecule itself
Test: ThioflavinT aggregation assay + transmission electron microscopy; 10 µM protein alone, 10 µM ThT, 0.1 M NaCl, 1 mM sodium azide, 20 mM Na phosphate pH 7.5, 37 °C, shaking at 200 rpm with Teflon beads; samples taken for negative-stain TEM at the end of the ThT assay; self-association into aggregates or fibrils

B1: UBQLN2^430–624 (domain or fragment, human)
chain: WLPAFLQQMQNPDTLSAMSNPRAMQALMQIQQGLQTLATEAPGLIPSFTPGVGVGVLGTAIGPVGPVTPIGPIGPIVPFTPIGPIGPIGPTGPAAPPGSTGSGGPTGPTVSSAAPSETTSPTSESGPNQQFIQQMVQALAGANAPQLPNPEVRFQQQLEQLNAMGFLNREANLQALIATGGDINAAIERLLGSQPS
notes: one tryptophan added at the N-terminus with the 6xHis tag (His6-W-); ubiquilin-2 (UBQLN2, PLIC-2), residues 430-624, from the fourth STI1 motif to the end of the protein, includes the PXX domain and the UBA domain; Plasmid pET3a-His6-W-UBQLN2^430–624 bought from Genscript; also called His6-W-UBQLN2^430–624; C-terminal UBQLN2 construct; source: E. coli Rosetta (DE3), purified (Ni-NTA, flow-through …)
Does B1 bind?
Result: binds

B2: UBA^581–624 (domain or fragment, human)
chain: WRFQQQLEQLNAMGFLNREANLQALIATGGDINAAIERLLGSQPS
notes: one tryptophan added at the N-terminus with the 6xHis tag (His6-W-); ubiquilin-2 (UBQLN2), UBA domain, residues 581-624; The methods on expression and purification name only the three longer constructs; also called His6-W-UBQLN2^581–624(UBA); isolated UBA domain from UBQLN2; source: recombinant, plasmid for bacterial expression (pET3a)
Does B2 bind?
Result: binds

B3: UBQLN1^438–589 (domain or fragment, human)
chain: WLPTFLQQMQNPDTLSAMSNPRAMQALLQIQQGLQTLATEAPGLIPGFTPGLGALGSTGGSSGTNGSNATPSENTSPTAGTTEPGHQQFIQQMLQALAGVNPQLQNPEVRFQQQLEQLSAMGFLNREANLQALIATGGDINAAIERLLGSQPS
notes: one tryptophan added at the N-terminus with the 6xHis tag (His6-W-); also called C-terminal UBQLN1 construct; source: E. coli Rosetta (DE3), purified (Ni-NTA, dialysis); not shown: His6, N-terminal, kept
Does B3 bind?
Result: binds

B4: UBQLN4^444–601 (domain or fragment, human)
chain: WLPVFLQQMQNPESLSILTNPRAMQALLQIQQGLQTLQTEAPGLVPSLGSFGISRTPAPSAGSNAGSTPEAPTSSPATPATSSPTGASSAQQQLMQQMIQLLAGSGNSQVQTPEVRFQQQLEQLNSMGFINREANLQALIATGGDINAAIERLLGSQLS
notes: one tryptophan added at the N-terminus with the 6xHis tag (His6-W-); also called C-terminal UBQLN4 construct; source: E. coli Rosetta (DE3), purified (Ni-NTA, dialysis); not shown: His6, N-terminal, kept
Does B4 bind?
Result: binds

— article PMC7801659, “Shared and divergent phase separation and aggregation properties of brain-expressed ubiquilins” (Scientific Reports, 2021)
